Laboratory results: patent publication US20250206813A1 (NVH MEDICINAL, published 2025)

T1: PCPE-1 (Procollagen C-proteinase enhancer-1) glycoprotein, human (human, UniProt Q15113 26-449)
T1 construct: mature; Secreted recombinant protein; also called purified human PCPE-1
T1 sequence (looked up): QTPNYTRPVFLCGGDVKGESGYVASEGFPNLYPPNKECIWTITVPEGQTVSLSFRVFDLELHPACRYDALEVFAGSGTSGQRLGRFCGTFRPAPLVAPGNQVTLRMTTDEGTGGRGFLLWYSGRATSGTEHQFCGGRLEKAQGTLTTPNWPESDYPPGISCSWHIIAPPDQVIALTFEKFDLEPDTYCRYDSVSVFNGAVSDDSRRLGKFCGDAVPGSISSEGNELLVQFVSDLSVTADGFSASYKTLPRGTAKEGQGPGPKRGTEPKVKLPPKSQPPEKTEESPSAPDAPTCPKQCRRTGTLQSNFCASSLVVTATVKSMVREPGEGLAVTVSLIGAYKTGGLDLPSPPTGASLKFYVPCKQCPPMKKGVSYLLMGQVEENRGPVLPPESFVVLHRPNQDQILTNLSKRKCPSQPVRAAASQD


How the values were obtained:
[1] = biological target: T1, PCPE-1 (Procollagen C-proteinase …); assay: SPR competition: PCPE-1 (5 nM) co-injected with D1 (0-200 nM) over immobilized mini-procollagen III; blocked ligand: Mini III
Protocol: FIG. 4B: Inhibition of PCPE-1/mini-procollagen III interaction in the presence of D1: the interaction of PCPE-1 (5 nM) with immobilized mini-procollagen III is measured and compared with the interaction obtained when PCPE-1 (5 nM) is co-injected with increasing amounts (0-200 nM) of D1. The % residual PCPE-1 uptake is plotted as a function of D1 concentration.
(§1) Surface plasmon resonance (SPR) experiments were carried out on a Biacore T200 (Cytiva). The ligand proteins, in solution in 10 mM HEPES pH 7.4 buffer for PCPE-1 or 10 mM sodium acetate pH 4.5 buffer for mini-procollagen III and streptavidin, are immobilized on CM5 chips by amine coupling. Analytes are diluted in running buffer (10 mM HEPES pH 7.4, 0.15 M NaCl, 5 mM CaCl₂), 0.05% P20) and injected at a flow rate of 30 or 50 μL/min. Competition, epitope binning and kinetics experiments were all carried out at 25° C. Regeneration was achieved by successive injection of 2 M guanidine chloride and 0.5 M EDTA for 30 sec. Sensorgrams were analyzed with Biacore T200 Evaluation v3.2.1 (Cytiva), using the most suitable models. IC50 was determined by non-linear regression using GraphPad Prism (v8.2.1).

[2] = biological target: T1, PCPE-1 (Procollagen C-proteinase …); assay: SPR, D1 (0-250 nM) injected over immobilized PCPE-1, 1:1 binding model (Langmuir)
Protocol: as §1
(§2) 21, produced in bacteria. The interaction of diab-D1 with PCPE-1 was assessed by SPR, by injecting increasing concentrations of diab-D1 onto immobilized PCPE-1.

[3] = biological target: T1, PCPE-1 (Procollagen C-proteinase …); assay: SPR, increasing concentrations of D1 (0-250 nM) on immobilized PCPE-1, Langmuir model
Protocol: as §1, §2

[4] = biological target: T1, PCPE-1 (Procollagen C-proteinase …); assay: SPR competition: PCPE-1 (5 nM) co-injected with D1 (0-200 nM) on immobilized Mini III
Protocol: as §1
Similarly, the addition of diab-D1 completely blocks the stimulation of CPIII-Long cleavage by PCPE-1 (FIG. 4C).

[5] = biological target: T1, PCPE-1 (Procollagen C-proteinase …); assay: SPR competition: PCPE-1 (5 nM) co-injected with the mix on immobilized Mini III; mix of VHH-I5 and VHH-H4, 5 nM PCPE-1
Protocol: as §1
What is more, their antagonistic effects are additive, and co-injection of a mixture of VHH-I5 and VHH-H4 with PCPE-1 virtually eliminates its interaction with Mini III.

IC50 (read off the curve) [1] [nM] | koff [2] [s⁻¹] | kon [2] [M⁻¹ s⁻¹] | Kd [3] [nM] | IC50 [4] [nM] | IC50 [5] [nM] | Binder
~3 | 0.000515 | 1.6e+06 | 0.32 | ~3.5 |  | bivalent nanobody VHH-H4-GS8-VHH-I5 (D1) (other, Single polypeptide of two VHHs (H4, linker, I5), biparatopic for PCPE-1 (CUB1 and CUB2); produced in bacteria; also called diab-D1; diabody D1; not shown: C-terminal tag of the pET29b(+) construct (6-His for the synthetic nanobodies)) MAEVQLQASGGGFVQPGGSLRLSCAASGFTSEISNMGWFRQAPGKEREFVSAISGTHTTQTYYADSVKGRFTISRDNSKNTVYLQMNSLRAEDTATYYCAAEQDMSDLWLGSYWGQGTQVTVSSAAAGSGSGSGSGSGSGGSQVQLVESGGGLVQPGGFLRLLCTASGNIFSSNTMGWYRRAPGKQREWVASISKGGSTNYADSVKDRFTISRSITKNTVYLQMVNLKPEDTAVYYCNPVPDSDNYASGQGTQVTVSS
 |  |  |  |  | ~20 | mix of VHH-I5 and VHH-H4 (other, Not one molecule: two separate nanobodies added together; the two chains are not linked; also called mixture of VHH-I5 and VHH-H4; VHH-I5 and VHH-H4 co-injected; not shown: C-terminal 6-His tag) VHH 1: MAQVQLVESGGGLVQPGGFLRLLCTASGNIFSSNTMGWYRRAPGKQREWVASISKGGSTNYADSVKDRFTISRSITKNTVYLQMVNLKPEDTAVYYCNPVPDSDNYASGQGTQVTVSS VHH 2: MAEVQLQASGGGFVQPGGSLRLSCAASGFTSEISNMGWFRQAPGKEREFVSAISGTHTTQTYYADSVKGRFTISRDNSKNTVYLQMNSLRAEDTATYYCAAEQDMSDLWLGSYWGQGTQVTVSS
